# B1: CYP6DE1 (Dendroctonus ponderosae) (protein)
# chain: MALIIAVGLLLSIILLYCVYSKWKFQHWTRKGVPQLNPRLFFGDTLPLVRGQALKDFHLGLYQKFKSTGAKCVGIYNAHMPELVPIDIILLKDIMVKDYSYFSSHGVFYHEKNVLTSHLFNIEGQSWKERRTKLTPVFTSAKMKQMFDTVASKSPGLVRLVGLSADANKPADIKEILSRFTTDVISGAAFGLECKSLYEPDNMFRAIGKEAFEPNALKLYIEYLFPRQLLGSIGYQTFSSRIVSYFSKVVNETIQYREKNNVQRNDFMQLMLQLKQHGSLVKEDGSVDVKKTETQITDREILSESFLMFLAGHETSSSTSTFALFALSQNQDIQEKVRNEINEVLERHNGKLGYDALMEMEYLDKVIRETLRKYPTVPVIPRRCTKDYQIKNTNTVIDKGTRLYIPVIGVHLDPEYYPDPERFDPERFSPENKAKRPDIAWMPFGEGPRQCLGMRFGLLQSKVALASLLPTFRFTINKAMKPPYIADAGTLVYMFKQDVLLDATRIN
# Assays:
# [1] = substrate: CC1=CC[C@@H]2C[C@H]1C2(C)C; experiment: cells, lysate or membranes; conditions: Sf9 microsomes + MPB CPR, 1 mM NADPH, 50 mM potassium phosphate pH 7.4, 30 °C, 1 h
# [2] = substrate: CC1=CC[C@H]2C[C@@H]1C2(C)C; experiment: cells, lysate or membranes; conditions: Sf9 microsomes + MPB CPR, 1 mM NADPH, 50 mM potassium phosphate pH 7.4, 30 °C, 1 h
protein,measurement,setting,value
B1,Km,[1],292 ± 1 µM
same,Vmax,[1],0.42 µM/min
same,kcat,[1],0.17 s⁻¹
same,kcat/Km,[1],576 M⁻¹ s⁻¹
same,Km,[2],160 ± 1 µM
same,Vmax,[2],0.96 µM/min
same,kcat,[2],0.37 s⁻¹
same,kcat/Km,[2],2320 M⁻¹ s⁻¹
